The text below walks through data of patent US20240383984A1 (Genentech, published 2024).

In assay [1] the target is T1, human FcRH5 (full-length, on cells) (human, UniProt Q96RD9 16-977).
T1 sequence: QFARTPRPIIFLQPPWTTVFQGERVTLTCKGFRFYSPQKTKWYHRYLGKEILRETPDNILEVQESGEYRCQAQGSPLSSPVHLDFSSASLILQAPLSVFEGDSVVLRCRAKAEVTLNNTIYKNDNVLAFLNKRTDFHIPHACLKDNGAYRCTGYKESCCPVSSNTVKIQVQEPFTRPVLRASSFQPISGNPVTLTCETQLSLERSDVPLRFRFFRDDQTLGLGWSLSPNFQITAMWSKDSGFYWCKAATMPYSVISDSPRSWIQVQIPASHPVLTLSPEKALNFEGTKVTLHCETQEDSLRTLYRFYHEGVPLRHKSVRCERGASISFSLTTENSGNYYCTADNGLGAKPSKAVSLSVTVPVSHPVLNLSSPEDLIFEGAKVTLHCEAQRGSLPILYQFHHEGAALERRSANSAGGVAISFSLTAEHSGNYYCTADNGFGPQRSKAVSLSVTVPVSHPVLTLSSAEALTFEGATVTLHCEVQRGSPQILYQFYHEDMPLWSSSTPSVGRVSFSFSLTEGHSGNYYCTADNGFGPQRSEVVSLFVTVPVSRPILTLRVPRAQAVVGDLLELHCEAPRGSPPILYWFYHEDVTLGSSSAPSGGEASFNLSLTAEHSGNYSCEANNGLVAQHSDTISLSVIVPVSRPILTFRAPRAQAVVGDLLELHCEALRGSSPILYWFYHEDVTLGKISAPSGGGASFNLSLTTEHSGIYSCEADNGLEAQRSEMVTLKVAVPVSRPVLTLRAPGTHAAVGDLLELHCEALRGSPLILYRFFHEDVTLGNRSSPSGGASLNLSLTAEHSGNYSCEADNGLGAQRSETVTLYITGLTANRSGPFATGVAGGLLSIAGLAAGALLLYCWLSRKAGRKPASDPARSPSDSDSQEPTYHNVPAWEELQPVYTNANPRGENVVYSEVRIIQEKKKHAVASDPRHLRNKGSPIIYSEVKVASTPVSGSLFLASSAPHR
The assay can be described thus: cell-based or functional assay.

For assay [2], the target named is T2, human FcRH5 protein fragment (soluble) (human, UniProt Q96RD9 16-851).
T2 construct: whole entry named; also called soluble human FcRH5; Human FcRH5 (BIACORE analyte)
T2 sequence: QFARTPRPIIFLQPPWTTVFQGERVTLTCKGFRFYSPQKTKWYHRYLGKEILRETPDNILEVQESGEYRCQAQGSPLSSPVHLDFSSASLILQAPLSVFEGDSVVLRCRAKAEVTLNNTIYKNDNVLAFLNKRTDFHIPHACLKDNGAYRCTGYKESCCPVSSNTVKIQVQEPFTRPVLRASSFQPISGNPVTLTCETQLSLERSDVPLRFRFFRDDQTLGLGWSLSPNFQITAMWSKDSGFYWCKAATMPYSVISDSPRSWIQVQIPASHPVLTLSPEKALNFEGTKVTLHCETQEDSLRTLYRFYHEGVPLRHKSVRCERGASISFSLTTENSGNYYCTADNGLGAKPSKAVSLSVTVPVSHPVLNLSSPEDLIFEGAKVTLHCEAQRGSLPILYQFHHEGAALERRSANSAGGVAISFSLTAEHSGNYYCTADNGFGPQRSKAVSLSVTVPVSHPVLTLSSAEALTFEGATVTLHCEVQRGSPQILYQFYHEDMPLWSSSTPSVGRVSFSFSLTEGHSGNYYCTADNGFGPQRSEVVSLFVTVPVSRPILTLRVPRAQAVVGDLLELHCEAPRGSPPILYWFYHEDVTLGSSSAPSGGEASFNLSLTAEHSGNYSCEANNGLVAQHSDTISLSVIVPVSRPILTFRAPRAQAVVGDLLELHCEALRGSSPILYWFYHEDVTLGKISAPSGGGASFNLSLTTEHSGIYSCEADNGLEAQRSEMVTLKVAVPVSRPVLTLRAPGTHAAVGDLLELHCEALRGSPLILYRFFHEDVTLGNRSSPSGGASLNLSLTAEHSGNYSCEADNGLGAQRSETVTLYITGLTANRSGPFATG
The assay can be described thus: BIACORE, hIgG capture, 1:1 model, monovalent. The protocol: Briefly, a human IgG capture surface was generated on a Series S CM5 chip using amine coupling and the human IgG capture kit (GE Life Sciences, Piscataway, NJ). Test antibodies were then captured on flow cells 2, 3, or 4, with flow cell 1 used as a reference. An FcRH5 protein fragment was used as the analyte, with a flow rate of […]. Between injections the capture surface was regenerated by a 30-second injection of 3M magnesium chloride or 10 mM glycine, pH 1.5. Interactions were assessed at 25° C. in 10 mM HEPES pH7.4, 150 mM NaCl, and 0.05% Tween 20 (HBSP). Reference data from the reference flow cell and from injection of buffer alone were subtracted prior to kinetic analysis. Kinetic information was calculated by fitting data to a 1:1 binding model. Reference subtraction and data fitting were performed using BIAevaluation software (GE Life Sciences, Piscataway, NJ).
Kinetic characterization experiments were carried out (see Table 8). In these experiments, binding of soluble FcRH5 protein fragment to purified antibodies in human TDB antibody format was analyzed at six different non-zero concentrations (a 1:3 dilution series, one concentration injected twice as a replicate). Flow rate was set at 40 μl/min and association and dissociation monitored for 600 s.
On the technique in general: SPR reads the build-up and loss of mass on a sensor chip optically.

By Kd is commonly meant the equilibrium constant for the complex coming apart. Lower therefore signals higher affinity.

B1: 1G7.v85/38E4.v1 TDB (bispecific antibody, V domains shown)
VH 1: EVQLVESGPGLVKPSETLSLTCTVSGFSLTRFGVHWVRQPPGKGLEWLGVIWRGGSTDYNAAFVSRLTISKDNSKNQVSLKLSSVTAADTAVYYCSNHYYGSSDYALDNWGQGTLVTVSS
VL 1: DIQMTQSPSSLSASVGDRVTITCKASQDVRNLVVWFQQKPGKAPKLLIYSGSYRYSGVPSRFSGSGSGTDFTLTISSLQPEDFATYYCQQHYSPPYTFGQGTKVEIK
VH 2: EVQLVQSGAEVKKPGASVKVSCKASGFTFTSYYIHWVRQAPGQGLEWIGWIYPENDNTKYNEKFKDRVTITADTSTSTAYLELSSLRSEDTAVYYCARDGYSRYYFDYWGQGTLVTVSS
VL 2: DIVMTQSPDSLAVSLGERATINCKSSQSLLNSRTRKNYLAWYQQKPGQSPKLLIYWTSTRKSGVPDRFSGSGSGTDFTLTISSLQAEDVAVYYCKQSFILRTFGQGTKVEIK
notes: knob-into-hole TDB; also called 1G7.v85 TDB; 1G7.v85 (TDB format)
As for B1, in assay [1], the “killing of 293-FcRH5-PD-L1 cells by primed CD8+ cells, TDB alone, EC50” value is 0.63 ng/mL; the “killing of 293-FcRH5-PD-L1 cells, with anti-PD-1 antibody (pembrolizumab), EC50” value came out at 0.4 ng/mL; the “killing of 293-FcRH5-PD-L1 cells, with anti-PD-L1 antibody, EC50” value is 0.4 ng/mL; the “killing of MOLP-2 cells, EC50” value is 0.058 nM. In addition, in assay [1], the “killing of SVT2-FcRH5 cells in DMSO, IC50” value was 0.006 nM; the “killing of SVT2-FcRH5 cells in buffer, IC50” value was found to be 0.007 nM; the “killing of SVT2-FcRH5 cells with 0.1 µM Dex, IC50” value was found to be 0.016 nM; the “killing of plasma cells (PCs), median EC50” value is 25 ng/mL. This molecule also came in with a Kd in assay [2] of 2.35 nM.
